1 sequence from publication PMC6389858 can be followed below.

In data set [1] the target is T1, OxyR (Escherichia coli K12 BW25113?) (UniProt P0ACQ4).
T1 sequence: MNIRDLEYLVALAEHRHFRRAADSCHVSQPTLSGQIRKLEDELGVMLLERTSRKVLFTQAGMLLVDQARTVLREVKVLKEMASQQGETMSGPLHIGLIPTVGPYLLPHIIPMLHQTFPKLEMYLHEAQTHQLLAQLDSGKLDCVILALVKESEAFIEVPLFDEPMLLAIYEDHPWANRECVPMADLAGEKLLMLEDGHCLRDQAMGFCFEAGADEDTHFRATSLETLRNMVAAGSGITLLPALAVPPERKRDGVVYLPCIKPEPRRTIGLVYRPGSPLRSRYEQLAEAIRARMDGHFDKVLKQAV
Description: EMSA. The settings on record: EMSA: 10 mM HEPES pH 7.3, 20 mM KCl, 1 mM MgCl2, 5% glycerol, poly dI-dC, NP-40, 25 C, 2 h; 6% DNA retardation gel. (In general: A gel shift assay detects complexes by their altered migration in electrophoresis.)

Data set [2] has as its target T1, OxyR (Escherichia coli K12 BW25113?). Briefly: competition. The settings on record: EMSA: 10 mM HEPES pH 7.3, 20 mM KCl, 1 mM MgCl2, 5% glycerol, poly dI-dC, NP-40, 25 C, 2 h; 6% DNA retardation gel.

Consider “ACTGGCCTGATAAGCCTGTTTACCTCGGGGCGCAGGCGCATCTGCAAAACTTCTACCAGAGTTTCGGTTTTATCCCTGTGACGGAGGTCTATGAAGAAGATGGTATCCCACACATTGGGATGGCACGCGAGGTAATTCAGGCGTAATCAACAACCCTTGTCTATAGTTAGTGACAGGTTTTACGCAAATGGAGAACGAGA (double strand) [PelaB-S (elaB promoter probe with OxyR binding site 2)]”, for which the binding entry in data set [1] and in data set [2] was “binds” each time.
